Collision cross section data for 60 sequences are collected here from the supplement of paper PMC10598134.

± gives the standard deviation.

The nature of the data set: collision cross section of modified peptide (TIMS, N2, iRT-aligned); higher = larger / more extended gas-phase ion. Put shortly:
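On a timsTOF Pro/HT (dda-PASEF, nitrogen, ~2.4 mbar), synthetic peptide pools were analysed after a 120-min nanoflow C18 separation at 60 °C and identified in MaxQuant. Three reference ions served for 1/K0 calibration, with run-wise alignment to the median iRT peptide deviation. Collision cross section comes from the Mason-Schamp equation, using the most abundant feature per charge state averaged over 1–3 technical replicates.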

Where [1] appears, read: charge state: 2, modification: Acetyl (K).
Setting [2] is: charge state: 2, modification: HexNAc (ST).
Setting [3] is: charge state: 2, modification: hydroxyisobutyryl.
[4] abbreviates: charge state: 2, modification: Nitro (Y).
The mark [5] stands for this setting: charge state: 3, modification: Acetyl (K).
Where [6] appears, read: charge state: 2, modification: Methyl (K).
[7] abbreviates: charge state: 3, modification: Methyl (K).
[8] abbreviates: charge state: 2, modification: Succinyl.
Where [9] appears, read: charge state: 2, modification: Dimethyl (K).
The mark [10] stands for this setting: charge state: 3, modification: Dimethyl (K).
Where [11] appears, read: charge state: 2, modification: Butyryl.
[12] abbreviates: charge state: 3, modification: Butyryl.
Setting [13] is: charge state: 2, modification: Crotonyl.
Setting [14] is: charge state: 2, modification: Phospho (Y).
[15] abbreviates: charge state: 2, modification: Malonyl.
The mark [16] stands for this setting: charge state: 3, modification: Malonyl.
Where [17] appears, read: charge state: 2, modification: Glutarylation.
Where [18] appears, read: charge state: 2, modification: Formyl.
[19] abbreviates: charge state: 3, modification: Citrullination (R).
[20] abbreviates: charge state: 2, modification: Propionyl.

With “VDIDAPDVSIEGPDAKLK [_VDIDAPDVSIEGPDAK(Acetyl (K))LK_]”, under setting [1], the collision cross section is on record as 462.55 ± 2.9 Å².
With ATAVVDGAFK [_AT(HexNAc (ST))AVVDGAFK_], under setting [2], the collision cross section amounted to 362.47 ± 0.64 Å².
“FSAYIKNSNPALNDNLEK [_FSAYIK(hydroxyisobutyryl)NSNPALNDNLEK_]”: the collision cross section is on record as 489.27 ± 0.86 Å² under setting [3] and 551.92 ± 1.1 Å² (charge state: 3, modification: hydroxyisobutyryl).
Sequence FYTEDSPGLK [_FY(Nitro (Y))TEDSPGLK_] gave a collision cross section under setting [4] of 356.24 ± 0.17 Å².
Turning to “PSVSTKLISK [_PSVSTK(hydroxyisobutyryl)LISK_]”, the collision cross section under setting [3] stood at 359.8 ± 1.9 Å².
Regarding “TTGFYSGFSEVAEKR [_TTGFYSGFSEVAEK(Acetyl (K))R_]”, the collision cross section reads like this: under setting [1], 434.33 ± 1.7 Å²; under setting [5], 508.12 ± 0.12 Å².
VNALKNLQVK [_VNALK(GlyGly (K))NLQVK_]: the collision cross section is 383.13 ± 0.38 Å² (charge state: 2, modification: GlyGly (K)) and 444.03 ± 1.9 Å² (charge state: 3, modification: GlyGly (K)).
On to GRGYFEHR [_GR(Methyl (R))GYFEHR_], for which the collision cross section was 342.05 Å² (charge state: 2, modification: Methyl (R)) and 410.57 ± 5.9 Å² (charge state: 3, modification: Methyl (R)).
In the case of “SSFAYKDQNENR [_SSFAYK(Methyl (K))DQNENR_]”, the collision cross section under setting [6] was found to be 422.28 ± 0.64 Å² and the collision cross section under setting [7] amounted to 455.52 ± 4 Å².
Under setting [8], “GSLGAQKLANTCFNEIEK [_GSLGAQK(Succinyl)LANTCFNEIEK_]” showed a collision cross section of 470.21 ± 0.66 Å².
In turn, “TLQKQSVVYGGK [_TLQK(Acetyl (K))QSVVYGGK_]” returned a collision cross section under setting [1] of 392.07 ± 0.61 Å².
As for “TEVLSPNSKVESK [_TEVLSPNSK(Methyl (K))VESK_]”, the collision cross section was determined as 412.51 ± 2.6 Å² under setting [6] and 437.62 ± 4.3 Å² under setting [7].
In the case of “AAQASDLEKIHLDEK [_AAQASDLEK(Acetyl (K))IHLDEK_]”, the collision cross section runs as follows: under setting [1], 454.7 ± 2.5 Å²; under setting [5], 495.59 ± 1.3 Å².
As to “VDIDAPDVSIEGPDAKLK [_VDIDAPDVSIEGPDAK(Dimethyl (K))LK_]”, the collision cross section worked out at 457.63 ± 1.8 Å² under setting [9] and 550.49 ± 0.63 Å² under setting [10].
Consider ASAISIKLGSSK [_ASAISIK(Butyryl)LGSSK_], for which the collision cross section under setting [11] was 375.24 ± 1.9 Å².
On to “AAQASDLEKIHLDEK [_AAQASDLEK(Dimethyl (K))IHLDEK_]”, for which the collision cross section under setting [10] is listed as 503.12 ± 0.75 Å².
Consider “TVQGPPGEPGR [_TVQGPPGEP(Hydroxyproline)GR_]”, for which, under “charge state: 2, modification: Hydroxyproline”, the collision cross section was determined as 345.67 ± 0.89 Å².
For “LQEKVESAQSEQK [_LQEK(Butyryl)VESAQSEQK_]”, the collision cross section by setting is: under setting [11], 419.43 ± 0.77 Å²; under setting [12], 504.21 ± 1.9 Å².
Under setting [13], “FLQEFYQDDELGKK [_FLQEFYQDDELGK(Crotonyl)K_]” gave a collision cross section of 450.33 ± 0.0083 Å².
As to SGFGKFER [_SGFGK(Butyryl)FER_], under setting [11], the collision cross section is given as 337.09 ± 1.2 Å².
For STCTYVGAAK [_STCTY(Phospho (Y))VGAAK_], the collision cross section under setting [14] was 346.22 ± 0.0011 Å².
Sequence LEKTIDDLEEK [_LEK(Butyryl)TIDDLEEK_] gave a collision cross section under setting [11] of 409.44 ± 0.57 Å².
Regarding “IVSGKDYNVTANSK [_IVSGK(Malonyl)DYNVTANSK_]”, the collision cross section by setting is: under setting [15], 407.96 ± 0.037 Å²; under setting [16], 465.84 ± 1.8 Å².
The sequence TYVQDILR [_TY(Nitro (Y))VQDILR_] came in with a collision cross section under setting [4] of 350.96 ± 0.47 Å².
“ITESVAETAQTIK [_ITESVAET(HexNAc (ST))AQTIK_]” had a collision cross section under setting [2] of 422.03 ± 0.75 Å².
Under setting [17], “ISSNFSSIIAEKLR [_ISSNFSSIIAEK(Gluratylation)LR_]” showed a collision cross section of 430.8 ± 0.96 Å².
On to “SITHSTVGSKGEK [_SITHSTVGSK(Succinyl)GEK_]”, for which the collision cross section under setting [8] was found to be 392.73 ± 1.4 Å² and the collision cross section (charge state: 3, modification: Succinyl) is listed as 442.37 ± 2.9 Å².
For the sequence “GGPGSTLSFVGKR [_GGPGSTLSFVGK(Dimethyl (K))R_]”, the collision cross section was found to be 393.41 ± 0.79 Å² under setting [9] and 425.47 ± 2 Å² under setting [10].
Sequence SLKLNTAEDAK [_SLK(Formyl)LNTAEDAK_] registered a collision cross section under setting [18] of 369.44 ± 0.39 Å².
With “ISALQGKLSK [_ISALQGK(Gluratylation)LSK_]”, the collision cross section under setting [17] amounted to 358.52 ± 0.083 Å².
As for IGNSYFKEEK [_IGNSYFK(Crotonyl)EEK_], the collision cross section under setting [13] is 378.81 ± 0.89 Å².
Consider “GFALVGVGSEASSKK [_GFALVGVGSEASSK(Methyl (K))K_]”, for which the collision cross section runs as follows: under setting [6], 437.53 ± 2.3 Å²; under setting [7], 496.87 ± 4 Å².
Regarding “PGTPAGYGRGR [_PGTPAGYGR(Citrullination (R))GR_]”, the collision cross section is recorded as 345.81 ± 4.8 Å² (charge state: 2, modification: Citrullination (R)) and 431.14 Å² under setting [19].
The sequence “DYSAPVNFISAGLKK [_DYSAPVNFISAGLK(Trimethyl (K))K_]” yielded a collision cross section (charge state: 2, modification: Trimethyl (K)) of 463.71 ± 1 Å² and a collision cross section (charge state: 3, modification: Trimethyl (K)) of 523.24 ± 1.8 Å².
Take DHLSDKESK [_DHLSDK(Propionyl)ESK_]: under setting [20], the collision cross section was 355.5 ± 0.95 Å².
As to “RGATPPAPPRR [_R(Citrullination (R))GATPPAPPRR_]”, the collision cross section under setting [19] is recorded as 462.57 ± 1.3 Å².
In the case of “DLSTVEALQNLKNLK [_DLSTVEALQNLK(Butyryl)NLK_]”, the collision cross section amounted to 484.29 ± 0.35 Å² under setting [11] and 550.2 Å² under setting [12].
For “IPQEKCILQTDVK [_IPQEK(Malonyl)CILQTDVK_]”, under setting [15], the collision cross section is listed as 431.57 Å².
“DYSSGFGGKYGVQADR [_DYSSGFGGK(Crotonyl)YGVQADR_]” showed a collision cross section under setting [13] of 437.04 ± 0.54 Å².
For “LAEQEAHYAVR [_LAEQEAHY(Phospho (Y))AVR_]”, the collision cross section by setting is: under setting [14], 408.57 ± 0.76 Å²; (charge state: 3, modification: Phospho (Y)) 482.98 ± 0.1 Å².
As for LEKTIDDLEEK [_LEK(Formyl)TIDDLEEK_], the collision cross section under setting [18] came out at 399.8 ± 0.55 Å².
For “ITESVAETAQTIKK [_ITESVAETAQTIK(Propionyl)K_]”, the collision cross section under setting [20] came to 421.06 ± 1.1 Å² and the collision cross section (charge state: 3, modification: Propionyl) turned out to be 515.07 Å².
As to “TTGFYSGFSEVAEKR [_TTGFYSGFSEVAEK(Malonyl)R_]”, under setting [15], the collision cross section stood at 440.22 ± 1.2 Å².
For “DESFLGKLGGTLAR [_DESFLGK(Gluratylation)LGGTLAR_]”, the collision cross section reads like this: under setting [17], 418.47 ± 2.1 Å²; (charge state: 3, modification: Glutarylation) 488.45 ± 2.4 Å².
In the case of “LLIVSTTPYSEKDTK [_LLIVSTTPYSEK(Methyl (K))DTK_]”, the collision cross section was 465.27 ± 2.3 Å² under setting [6] and 508.6 ± 2 Å² under setting [7].
The sequence “AGQKLIDVNHYAK [_AGQK(Malonyl)LIDVNHYAK_]” gave a collision cross section under setting [15] of 433.55 ± 0.56 Å² and a collision cross section under setting [16] of 477.49 ± 1.8 Å².
Consider “DYSSGFGGKYGVQADR [_DYSSGFGGK(Succinyl)YGVQADR_]”, for which, under setting [8], the collision cross section stood at 438.99 ± 0.83 Å².
On to “SAGSVESPSVSSTHR [_SAGSVESPSVS(HexNAc (ST))STHR_]”, for which, under setting [2], the collision cross section was 412.88 ± 0.14 Å².
Take “LLIVSTTPYSEKDTK [_LLIVSTTPYSEK(Malonyl)DTK_]”: the collision cross section by setting is: under setting [15], 454.81 ± 0.99 Å²; under setting [16], 468.47 ± 1.2 Å².
Regarding LGNDFHTNKR [_LGNDFHTNK(Crotonyl)R_], the collision cross section runs as follows: under setting [13], 379.22 ± 1.3 Å²; (charge state: 3, modification: Crotonyl) 445.34 ± 2 Å².
“GEKGLPGLAGDHGEFGEK [_GEKGLP(Hydroxyproline)GLAGDHGEFGEK_]” came in with a collision cross section (charge state: 3, modification: Hydroxyproline) of 558.56 ± 0.81 Å².
The sequence “VDIDVPDVNIEGPDAKLK [_VDIDVPDVNIEGPDAK(Crotonyl)LK_]” had a collision cross section under setting [13] of 487.32 Å².
On to “IDLPAENSNSETIIITGKR [_IDLPAENSNSETIIITGK(Gluratylation)R_]”, for which the collision cross section under setting [17] came to 499.21 ± 1.9 Å².
As for “DESFLGKLGGTLAR [_DESFLGK(Dimethyl (K))LGGTLAR_]”, the collision cross section is given as 418.8 ± 0.75 Å² under setting [9] and 466.85 ± 1.2 Å² under setting [10].
Regarding “DTPTSAGPNSFNKGK [_DTPTSAGPNSFNK(Methyl (K))GK_]”, the collision cross section was found to be 405.71 ± 2.7 Å² under setting [6] and 460.78 ± 4.6 Å² under setting [7].
In the case of VYSLFLDESR [_VY(Phospho (Y))SLFLDESR_], the collision cross section under setting [14] is on record as 376.54 ± 1.2 Å².
LQNSYQPTNK [_LQNSY(Nitro (Y))QPTNK_] had a collision cross section under setting [4] of 362.69 ± 0.94 Å².
DYNVTANSK [_DY(Phospho (Y))NVTANSK_] yielded a collision cross section under setting [14] of 337.74 ± 0.067 Å².
Turning to GEVQVSDKER [_GEVQVSDK(Crotonyl)ER_], under setting [13], the collision cross section is reported as 363.4 ± 0.8 Å².
For SSFAYKDQNENR [_SSFAYK(Formyl)DQNENR_], under setting [18], the collision cross section came to 394.76 ± 0.75 Å².
